How the values were obtained:
Test in all cases: BLI
H1 Caledonia = molecular target: H1 Caledonia
H2 Japan = molecular target: H2 Japan
H5 Vietnam = molecular target: H5 Vietnam
H3 Victoria = molecular target: H3 Victoria
H3 Panama = molecular target: H3 Panama
[1] = molecular target: HA H1 Solomon (A/Solomon Islands/3/2006(H1N1)); settings: monovalent Fab

| Substance | Kd (H1 Caledonia) [pM] | Kd (H2 Japan) [pM] | Kd (H5 Vietnam) [pM] | Kd (H3 Victoria) [pM] | Kd (H3 Panama) [pM] | Kd [1] [pM] |
| --- | --- | --- | --- | --- | --- | --- |
| MEDI8852 VH E65P Fab | < 1 | < 1 | < 1 | < 1 | < 1 |  |
| MEDI8852 unmutated common ancestor (UCA) Fab (wild-type) VH:K58S; VH:V65P; VL:G95P |  |  |  |  |  | 50000 |

Reference: paper PMC10869273
